Assay [1] has as its target N-terminally V5-tagged Asp272Ala^TEAD4 (full length) (human) (UniProt Q15561). As to the kind of experiment: co-IP.
For assay [2], the target named is TEAD4 (recombinant protein of the TR-FRET and SPR assays) (human). As to the kind of experiment: AlphaScreen or HTRF.
In assay [3] the target is wt^Sd (Scalloped residues 223-440), N-biotinylated-Avitagged (Drosophila melanogaster) (UniProt P30052). Put plainly: SPR. On the technique in general: SPR reads the build-up and loss of mass on a sensor chip optically.
Chain of wt^Sd (Scalloped residues 223-440), N-biotinylated-Avitagged (Drosophila melanogaster) (P30052 223-440): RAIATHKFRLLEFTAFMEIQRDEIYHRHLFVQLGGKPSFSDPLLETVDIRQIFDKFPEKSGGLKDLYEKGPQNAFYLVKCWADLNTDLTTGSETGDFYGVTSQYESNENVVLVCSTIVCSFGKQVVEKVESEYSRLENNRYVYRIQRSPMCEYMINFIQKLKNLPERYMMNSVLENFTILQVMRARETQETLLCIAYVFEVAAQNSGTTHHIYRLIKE
Assay [4] addresses TEAD4 (recombinant protein of the TR-FRET and SPR assays) (human). As to the kind of experiment: SPR.
For assay [5] the target is unchanged. As to the kind of experiment: SPR. The source holds these as a separate data set.

Like-named read-outs stand apart in the source and are kept apart here. Bounds are passed on as bounds.

By IC50 is commonly meant the concentration that inhibits the measured activity by half. A word on the Kd: it is the free concentration of one partner at which half of the binding sites on the other are occupied at equilibrium, for simple one-to-one binding.

Chain of N-terminally V5-tagged Asp272Ala^TEAD4 (full length) (human) (Q15561 whole entry D272A): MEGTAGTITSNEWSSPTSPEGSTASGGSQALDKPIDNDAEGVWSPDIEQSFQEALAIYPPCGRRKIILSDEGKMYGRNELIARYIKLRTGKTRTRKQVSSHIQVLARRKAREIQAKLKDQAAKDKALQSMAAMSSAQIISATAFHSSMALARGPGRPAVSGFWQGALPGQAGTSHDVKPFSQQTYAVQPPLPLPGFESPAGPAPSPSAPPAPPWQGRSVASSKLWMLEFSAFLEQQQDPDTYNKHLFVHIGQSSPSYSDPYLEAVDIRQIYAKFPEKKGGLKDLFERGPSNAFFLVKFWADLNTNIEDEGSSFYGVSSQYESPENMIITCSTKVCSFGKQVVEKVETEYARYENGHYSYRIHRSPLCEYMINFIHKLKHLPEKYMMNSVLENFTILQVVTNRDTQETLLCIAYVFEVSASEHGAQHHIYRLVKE

“(FLAG)3-delΩ^VGLL2 (full-length VGLL2 with the Ω-loop deleted) (from UniProt Q8N8G2-1 1-317) (natural protein)” yielded a fold reduction of co-IP (IP over input) against wt^TEAD4 with wt^VGLL2 in assay [1] of 2 fold.
For “VGLL3^140-154 (region of human VGLL3 aligned with the Ω-loop of Vg) (from UniProt A8MV65 140-154) (peptide)”, in assay [2], the IC50 is > 500000 nM.
In the case of “YAP^85-99 (Ω-loop of YAP) (from UniProt P46937 85-99) (peptide)”, the IC50 in assay [2] was 98000 nM.
In turn, “Vg^298-337 (Vestigial Sd-binding domain without the putative β-strand) (from UniProt Q26366 298-337) (peptide)” returned a Kd in assay [3] of 61 nM.

B1: Vg^288-337 (TONDU domain and Ω-loop of Vestigial) (peptide)
peptide: Ac-CVVFTNYSGDTASQVDEHFSRALNYNNKDSKESSSPMSNRNFPPSFWNSN-NH2
For B1, the Kd came out at 4.1 nM in assay [4] and 3.1 nM in assay [5].

B2: VGLL2^85-149 (β-strand:α-helix:Ω-loop of human VGLL2) (peptide)
peptide: Ac-CVLFTYFQGDISSVVDEHFSRALSQPSSYSPSCTSSKAPRSSGPWRDCSFPMSQRSFPASFWNSA-NH2
For the molecule B2, the Kd in assay [4] came to 34 nM.

B3: Vg^323-337 (Ω-loop of Vestigial) (peptide)
peptide: Ac-PMSNRNFPPSFWNSN-NH2
Take B3: the IC50 in assay [2] amounted to 157000 nM.

B4: VGLL2^135-149 (Ω-loop region of human VGLL2) (peptide)
peptide: Ac-PMSQRSFPASFWNSA-NH2
Consider B4, for which the IC50 in assay [2] turned out to be 133000 nM.

B5: VGLL2^85-108 (β-strand:α-helix of human VGLL2) (peptide)
peptide: Ac-CVLFTYFQGDISSVVDEHFSRALS-NH2
On to B5, for which the Kd in assay [4] turned out to be 590 nM.

Source of the values: doi:10.1101/2020.05.21.107789.
